Like-named read-outs stand apart in the source and are kept apart here.
Columns and labels:
Test in all cases: fluorescence polarization
[1] = target: GR DBD R460D/D462R (Homo sapiens, UniProt P04150 417-506, R460D;D462R)
[2] = target: T1, GR DBD WT (Homo sapiens, UniProt P04150 417-506)
[3] = target: T1, GR DBD WT; remark: listed apart in the source
[4] = target: T1, GR DBD WT; remark: listed apart in the source

T1 sequence (P04150 417-506): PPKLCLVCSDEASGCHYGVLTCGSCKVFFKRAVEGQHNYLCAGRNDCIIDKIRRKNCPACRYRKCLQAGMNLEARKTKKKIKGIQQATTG
GR DBD R460D/D462R, sequence (P04150 417-506 R460D/D462R): as the sequence (P04150 417-506) above, with R44D, D46R counted along it

B1: (+)GRE (dsDNA)
DNA 1: CCAGAACAGAGTGTTCTGA
DNA 2: TCAGAACACTCTGTTCTGG
With B1 the Kd [1] was 80 ± 7 nM and the Kd [2] was 70 ± 7 nM.

B2: INS nGRE (dsDNA)
DNA 1: TGCTCTCCTGGAGACATT
DNA 2: AATGTCTCCAGGAGAGCA
B2 gave a Kd [3] of 500 ± 70 nM.

B3: TSLP, low site only (dsDNA)
DNA 1: CCGCCTCCGG
DNA 2: CCGGAGGCGG
Work on B3 yielded a Kd [4] of 12700 ± 800 nM.

B4: FGFR3 nGRE (dsDNA)
DNA 1: CTGCCTCCCCGGAGATGG
DNA 2: CCATCTCCGGGGAGGCAG
B4 showed a Kd [3] of 280 ± 80 nM.

Reference: publication PMC3539207
